Experimental data as given in a protein production outcome set (Wang et al. 2014).

Assay: label from the status in PepcDB records

Sequence | protein production
MTGVSDIQEAVAQIKAAGPSKPRLARDPVNQPMINNWVEAIGDRNPIYVDDAAARAAGHPGIVAPPAMIQVWTMMGLGGVRPKDDPLGPIIKLFDDAGYIGVVATNCEQTYHRYLLPGEQVSISAELGDVVGPKQTALGEGWFINQHIVWQVGDEDVAEMNWRILKFKPAGSPSSVPDDLDPDAMMRPSSSRDTAFFWDGVKAHELRIQRLADGSLRHPPVPAVWQDKSVPINYVVSSGRGTVFSFVVHHAPKVPGRTVPFVIALVELEEGVRMLGELRGADPARVAIGMPVRATYIDFPDWSLYAWEPDE | failed
MATLTRLFIHPVKSMRGIGLTHALADVSGLAFDRIFMITEPDGTFITARQFPQMVRFTPSPVHDGLHLTAPDGSSAYVRFADFATQDAPTEVWGTHFTARIAPDAINKWLSGFFSREVQLRWVGPQMTRRVKRHNTVPLSFADGYPYLLANEASLRDLQQRCPASVKMEQFRPNLVVSGASAWEEDSWKVIRIGDVVFDVVKPCSRCIFTTVSPEKGQKHPAGEPLKTLQSFRTAQDNGDVDFGQNLIARNSGVIRVGDEVEILATAPAKIYGAAAADDTANITQQPDANVDIDWQGQAFRGNNQQVLLEQLENQGIRIPYSCRAGICGSCRVQLLEGEVTPLKKSAMGDDGTILCCSCVPKTALKLTRLEHHHHHH | failed
MTQASRSEFRAELLSRIPRWYSPWGHLLFPAVAGLAIAAFALSRIEDLAAWQLAAVPAFLVFGNAVEWTAHRGMLHRRLRFAEVFYVRHTPQHHAVYVADDMAMRDWRELKLVLLPAYGVLAILAVTSPLTLAFLWLRQPNLAALWVASVVLYVLSYEWLHLAYHLPADRWLARTALVRTLRRHHQLHHAPHLMNRWNFNVTVPLWDWVRGTLYPAPAPGSRPAAQPTGAAGRAP | failed
MNSVVDISWAKLAAFSLILLVPLAINARYRLGIAKDASVSVVRMTLQLVLIGVYLEYLFQLNSLIINLLWLAIMLVVGASSIAGKARLPKKPLMLPLLTGLVCGLFPLLIAITAGLVRPTPLYNAQYMIPLAGMLLGNSLSSNIIALQNLFSAFEERKSEYEAAISLGAAPKYASFPFVQEALRKSLAPTLASMTTMGLVTLPGMMTGQVLGGASPLVAIKYQLVIMLAIFVMMSVSVAITLEMTLSFVQTKEGRVTVKVRPVDGMKRGQ | failed
MSGKNEADSKDTGWEQIKDKGKIVVATSGTLYPTSYHDTDSGSDKLTGYEVEVVREAAKRLGLKVEFKEMGIDGMLTAVNSGQVDAAANDIDVTKDREEKFAFSTPYKYSYGTAIVRKDDLSGIKTLKDLKGKKAAGAATTVYMEVARKYGAKEVIYDNATNEQYLKDVANGRTDVILNDYYLQTLALAAFPDLNITIHPDIKYMPNKQALVMKKSNAALQKKMNEALKEMSKDGSLTKLSKQFFNKADVSKKIDADVQDVDLLEHHHHHH | not failed
SSKELLMKLRRKTGYSFVNCKKALETCGGDLKQAEIWLHKEAQKEGWSKAA | not failed
MCNDTATPQLEELVTTVANQLMTVDAATSAEVSQRVLAYLVEQLGVDVSFLRHNDRDRRATRLVAEWPPRLNIPDPDPLRLIYFADADPVFALCEHAKEPLVFRPEPATEDYQRLIEEARGVPVTSAAAVPLVSGEITTGLLGFIKFGDRKWHEAELNALMTIATLFAQVQARVAAEARLRYLADHDDLTGLHNRRALLQHLDQRLAPGQPGPVAALFLDLDRLKAINDYLGHAAGDQFIHVFAQRIGDALVGESLIARLGGDEFVLIPASPMSADAAQPLAERLRDQLKDHVAIGGEVLTRTVSIGVASGTPGQHTPSDLLRRADQAALAAKHAGGDSVAIFTADMSVSGELRNDIELHLRRGIESDALRLVYLPEVDLRTGDIVGTEALVRWQHPTRGLLAPGCFIPVAESINLAGELDRWVLRRACNEFSEWQSAGLGHDALLRINVSAGQLVTGGFVDFVADTIGQHGLDASSVCLEITENVVVQDLHTARATLARLKEVGVHIAIDDFGTGYSAISLLQTLPIDTLKIDKTFVRQLGTNTSDLVIVRGIMTLAEGFQLDVVAEGVETEAAARILLDQRCYRAQGFLFSRPVPGEAMRHMLSARRLPPTCIPATDPALS | failed
MDLWDRFCVNLHTRKITLEDESQKRSMDLRLLHGVAYGHSWFGKWGYRFCSGSFGVEEHHYHRAIAFLTSISLVDDITANFRENKANLNIGDIVRCYRDMSEIQLTTLQDLLRFMLTIKSRAPPIRIPIGKIEAPSVVLPSMKAYGTRACPQVKQCPKDKEKSVKCRKFALPLPLQACFHFPFRSSMTLLSGSFRS | not failed
MICTEALQRISFSSDLGQSDKAPPPVIEPSGLIRRDETLLDSSNSDFEFHISNSFDPGDSSPADEIFADGMILPFHVTAASTVPKRLYKYELPPITSSLSPSPLSPQPLPTKHSEKETNGRASGANSDSEAEKSSKSFWSFKRSSSLNCDIKKSLICSFPRLTRSNSTGSVTNSKRAMLRDVNNHRPSSRSSCCNAYQFRPQKHTGKKGEGGGSFSVIPVLNGPSTFGLGSILRHSNSKDKTKTKKKKNKK | failed
YTVRLETEHAKEILSSDSPWASLEMFSFYGNYLKLVRTEYEGLRLSSGDTVFFLGSGPLPLTLIVFFRLYGVKSTGIEKDSFRANLSKKVLEKLGLSSVIKIVNGNHFSLSRKDLSLSPDTGVKALMIAAQAEPKKEIFEHLLEVMPIGGRISC | failed
MAQEEAGRLPQVLARVGTSHGITDLACKLRFYDDWAPEYDQDVAALKYRAPRLAVDCLSQALQGPPHDALILDVACGTGLVAVELQARGFLQVQGVDGSPEMLKQARARGLYHHLSLCTLGQEPLPYPKGTFDAVIIVGALSEGQVPCSAIPELLRVTKPGGLVCLTTRTNPSNLPYKEALEAALDSLEQAGAWERLVTQPVDHWELATSEQESGLATCANDGFISGVIYLYRKQETAQGERGRLSIQPLIDH | failed
SSANEDQEMELEALRSIYEGDESFRELSPVSFQYRIGENGDPKAFLIEISWTETYPQTPPILSMNAFFNNTISSAVKQSILAKLQEAVEANLGTAMTYTLFEYAKDNKEQFMENHNPINSATSISNIISIETPNTAPSSKKKDKKEQLSKAQKRKLADKTDHKGELPRGWNWVDVVKHLSKTGSKDDE | failed
MSLKKTILCFGEALIDMLAQPLVKKGMPRAFLQCAGGAPANVAVAVARLGGAVQFVGMLGSDMFGDFLFDSFAEAGVVTDGIVRTSTAKTALAFVALDAHGERSFSFYRPPAADLLFRVEHFQDASFSDALIFHACSNSMTDADIAEVTFEGMRRAQAAGAIVSFDLNFRPMLWPNGENPASRLWKGLSLADVVKLSSEELDYLANTLAADANAVIQQLWQGRAQLLLVTDAAGPVHWYTRTAGGEVPTFRVQVQDSNAAGDAFVGGMLYTFAQQFDDAAALIDFCHDPESIVSTLRFAAAVGALAVTRQGAFTAMPMLSEVLSLIQEQSEGHHHHHH | not failed
MASTGASRSLAASPRPPQGRSSRQDKYSVLLPTYNERENLPLIVWLLVKSFSESAINYEIIIIDDGSPDGTREVAEQLAEIYGPDRILLRPREKKLGLGTAYIHGIKHATGNYVIIMDADLSHHPKFIPEFIRKQKEGNFDIVSGTRYKGNGGVYGWDLKRKIISRGANFITQILLRPGASDLTGSFRLYRKEVLQKLIEKCVSKGYVFQMEMIVRARQMNYTIGEVPISFVDRVYGESKLGGNEIVSFLKGLLTLFATT | failed
MGDIEGINIQSMASEIKKLRHKIETLEQQNSDLEIALTTAVEHGDAIESELFSTNDRLRGEVRERVIAERRLSKVLTVVSQQKDDLEVLVQTITEHSDEIDTQWLSRYSEVEALARLDPLTSIANRRMLDSALEQEWTRSLRSGSPLSVAMCDLDLFKAYNDRYGHNRGDQVLIAFAEILRGCSRRPPDLPARVGGEEFLILFPETDLAGARQVAEAIRLALWTLAIPHADSPHGRVTVSIGLACVFPRPEGDPADLIAQADFRLYEAKAHNRNTVRA | failed
MNIQALLSEKVSQALIAAGAPADCEPQVRQSAKVQFGDYQANGVMAVAKKLGMAPRQLAEQVLSHLDLNGIANKVEIAGPGFINIFLDPAFLADNVNRALQSERLG | not failed
MAESIFRKLRDGGEEGELAPALTIEETVASPFGLDVSGYLLTNLSSSILAGKSSSQGLVLITFSRSPSFYLQLLKQKGIVVSSSSKWIRILDCYTDPLGWIDQSSTSFSEGSSLIKLHKCVSDLKKLFSSIIEAGRVRSLSKGLYEIKSDCFGAELVGTGKTRFCVAIDSKREVIIYLNFESAQISSVFWSLNTDLHQEKVTNALEYISTMKANLEPLCPSSDGQRNALENLFSVHQDFGKGRFHVRFKLRKGRVRVMSEEYHVDQSGINFSPISSVDTVIAATKSLLPKASYLDLLFNYLVQFNLQLSEKERVEKEKVVLPFEHQDDGKSNEIYDGRRSLVDGKIETTPLSSMELQTDVVSSGKGGEIIYFRDSDDEHPDSDEDPDDDLDI | not failed
MPDKFKRVHVIVMDSVGIGEAPDAAKFGDFDVDTFGHIAKHVGGLKMPEMGKLGLSNIREIEGIEKAEKPLAYYTKMQEASNGKDTMTGHWEIMG | failed
VDEPESMVNLAFVKNDSYEKGPDSVVVHVYVKEICRDTSRVLFREQDFTLIFQTRDGNFLRLHPGCGPHTTFRWQVKLRNLIEPEQCTFCFTASRIDICLRKRQSQRWGGLEAPAARVGGA | not failed
MGYPPIRRFEYEHRGTETFTGRSPVPCHHAGIMSLYLRKQAYGVAPMKKIILSTIAALVASGSVFASYGTAAAQDYPYRPRYDRGYDRGGPPPPPYREHRRHNDGAAIAGGLAAGVIGGLIGGAIANGNGGPRYYEPPPPPRCWFEDRRVPNAYDGGWHMESMRVCN | failed
MRFVVAFFWTFLLTQMACYIVGAMNGAGYDLQTSVIMGFIITAAVIVLGEIMPVKQDASQH | failed
MLEQILLGTYTRRASQGIYKIALDTTQGRLTEATLLLEETSPTYLALSQKGELFSVTSVDGEGGTAAYQPEMDHFNLLNKVTEEGAPPCYVAVDENRQLVYAANYHQGIVHVYRILEDGSLEDADKVIHTEPTGPHENQNNAHVHYTDLTPDQRLVVCDLGTDRVYTYNVSLDGKLSEIAQFVTEPGTGPRHLVFHPTKSLAYLFGELDSTVSVLSYDETDGSFTELQKVSTLPADYDAFNGGAAIRISSDGRFLYASNRGHNSIAVYAVSENGEAIERIQLISTEGDIPRDFDLDPSEDFIVVANQDSDNLTLYRRNQETGLLEMIQKDVAVPECVCVLFVLEHHHHHH | not failed
MEGTVFTPCLEGMKHVKSDQGEMLTKPFLELCKTILPVIDKFGAAMTLVKSDIGGNITRLEKNYLSDPDKFKYLYTFVQVEIESKIAKGSSSCTNGLLWLTRAMDFLVELFRNLVAHQDWSMPQACADSYQKTLKKWHGWLASSTFSMALKLAPDRKKFMDVISGSGNIQADMERFCAEFGPFLHDNHKFLASVGMDDMKAS | not failed
MQAAAARIVTIAVCPGPAAAMQDAILQALRRDAADDAVALAREWVTNAPDHAAAHRWLALALQQQGQPALALDSIDTALTLTPEDADLHLLRAGALLATRDLSAADAALSRTTALDPNQFNAYVMQAHLAVARGDLDEAERLSRTAARLAPEHPQLLAVDGVVEMRRGQDDRALSLLTRAAEQLPDDARVLFSLGFAYLQKEHFAFAERAFERVIELNPPGTALRAFIAQLAQRQGRLDDALAAMQGVLDQPDGDLPAMRRLAGEMELQAGRPDQAAAHLRLALAHWPADRRTLHALLTAWERLGAVDDARDTLDAALATSATAHDLWLARLAVEPVGGPQAQAVIERWLLAMPEHLPALEALMRVHDMQGQADEAEMVARQIVAVEPGRISGEQRIVEALLQRDPPAAIACVESLIESLPAPQQTVLRPWLGNVQDRAGQPDAAVGTWMQFHREQAQHRLPLPPQAARQPTQWPALGSIPDTVTARPLFVWGTPGSHVERLVAVMGAATPLVRGDRYGITPPSDALQSYRTLEQLASGELAPTALVEGWKAQLPRRGIDDGNVIDWLLWWDNTLLTALRPHLPEGRLAIALRDPRDMLLDWLSAGASAPLALQSPQQATDWLLIALEQLATLHERDLYPHRIIRLDGIEDDPQGISTALEQAFGLSFPLVEPRGPARLASGRWRDYRGVLGAQFDLLTLIAVRFGYPQD | failed
